Experiments:
[1] = target: T1, C4.4A^1-278 fused to a C-terminal uPAR DIII purification tag (Homo sapiens, UniProt O95274); assay: far-Western, overlay or dot blot; immunoblot: purified C4.4A domain constructs, unreduced (lanes 1-6), separated by SDS-PAGE and immobilized on a PVDF membrane; 1 µg/mL mAb 11H10 as primary antibody, peroxidase-conjugated anti-mouse immunoglobulins, ECL; details: both partners purified
T1 construct: C4.4A (LYPD3), human, DI, DII and STP-rich region, residues 1-278; also called C4.4A-ent-uPAR-DIII; not shown: uPAR DIII, C-terminal, kept

[2] = target: T2, C4.4A-DIDII^1-199 fused to a C-terminal uPAR DIII purification tag (Homo sapiens, UniProt O95274); assay: as above; details: both partners purified
T2 construct: C4.4A (LYPD3), human, both LU-domains DI and DII, residues 1-199; also called C4.4A-DIDII (blot construct); not shown: uPAR DIII, C-terminal, kept
T2 sequence (O95274 whole entry, looked up, the tested form may be a part): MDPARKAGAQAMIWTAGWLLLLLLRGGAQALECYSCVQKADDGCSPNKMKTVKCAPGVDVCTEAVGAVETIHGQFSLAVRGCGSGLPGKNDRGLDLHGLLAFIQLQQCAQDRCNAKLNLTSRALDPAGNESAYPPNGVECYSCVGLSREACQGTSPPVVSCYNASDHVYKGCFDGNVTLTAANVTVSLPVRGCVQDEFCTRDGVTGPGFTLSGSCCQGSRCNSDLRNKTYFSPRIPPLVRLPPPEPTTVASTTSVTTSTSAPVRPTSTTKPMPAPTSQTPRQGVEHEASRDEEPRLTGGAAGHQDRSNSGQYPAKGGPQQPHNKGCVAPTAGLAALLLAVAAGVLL

T1 sequence (O95274 whole entry, looked up, the tested form may be a part): as above

B1: mouse monoclonal anti-human C4.4A antibody 11H10 (antibody, V domains shown)
VH: QVTLKESGPGILQPSQTLSLTCSFSGFSLNSFGTGVGWIRQPSGKGLEWLAHIWWNDYKYYNAALESRLTISKDTSNNQVFLKIASVDTADTATYYCARLRLRYFDYWGQGTTLTVSS
VL: DILMTQSPAILSVSPGEGVSFSCWANQNIGTSIHWYQQRTNGSPRLLIKYASESISGIPSRFSGSGSGTDFTLSINSVESEDIADYYCQQSNSWPIFTFGSGTKLEIK
notes: 11H10 light chain (kappa), printed as the Fab light chain; 11H10 heavy chain VH, CH1 and start of the hinge, printed as the Fab heavy chain; mouse IgG1 heavy chain constant region, the rest of the hinge, CH2 and CH3 that follow the printed Fd (ends VPRDC); IgG1 kappa; also called mAb 11H10; source: mouse hybridoma (FVB mice immunized with recombinant human C4.4A), purified
binding result [1]: binds
binding result [2]: binds
